Laboratory results as given in US20240043528A1, “NANOBODY-OGA FUSIONS AND USES THEREOF” (President and Fellows of Harvard College, priority 2020, published 2024).

Legend:
[1] = tested on: GFP-Nup62; test: Deglycosylation of GFP-Nup62 co-expressed with OGA constructs (anti-EPEA enrichment, RL2 immunoblot); format: cell-based, human; conditions: co-expressed in HEK 293T cells
Experimental: (§1) HEK 293T cells were cultured in Dulbecco's Modified Eagle Medium (DMEM, Cat #11995073) supplemented with penicillin (50 μg/mL) and streptomycin (50 μg/mL) along with 10% (v/v) FBS. Transfections of all plasmids in this study were performed using TransIT-PRO® (Mirus Bio, Cat #MIR 5740) according to the manufacturer's instructions.
Glycoproteins Nup62, Sp1, JunB, c-Jun were subcloned into pcDNA3.1 vector with a GFP and a Flag-tag or a BC2 tag in the N-terminus and an EPEA tag in the C terminus respectively, unless otherwise noted. For all split OGA constructs with or without the fusion of nanobody GFP, N fragments were tagged with myc tag and C fragments were tagged with HA tag respectively. Human SP1 cDNA ORF plasmid (Cat #HG12024-G), human c-Fos cDNA ORF plasmid, and human OGT cDNA ORF cloned with a C-terminal His tag (Cat #HG11279-M) were purchased from Sino Biological. For subcloning, PCR fragments were amplified using Q5 High-Fidelity 2× Master Mix (New England BioLabs, Cat #M0492S). The vectors were double-digested and ligated to gel-purified PCR products by T4 ligation using T4 DNA ligase (New England BioLabs, Cat #M0202S) or by Gibson assembly using Gibson Assembly Master mix (New England BioLabs, Cat #E2611L). c-Fos was subcloned into a pcDNA3.1 vector with a 14-residue Ubc tag (amino acids: QADQEAKELARQIA (SEQ ID NO: 11)), Flag tag, and EPEA tag at the C terminus. All nanobody DNA fragments were synthesized by IDT.
After 36-48 h of transfection, cells were harvested and washed with PBS once. Cells were lysed with M-PER lysis buffer containing 1× protease inhibitor cocktail and 10 μM Thiamet-G unless otherwise noted. Protein concentrations were determined by the BCA assay kit (G-Biosciences, 786) on a multi-mode microplate reader FilterMax F3 (Molecular Devices LLC, Sunnyvale, CA).
For immunoprecipitation of proteins with the C-terminal EPEA tag, cell lysates with equal amounts of protein were diluted with PBS and incubated with C-tag affinity matrix (Thermo Scientific) for 1 h at room temperature, with end-to-end rotation, following the manufacturer's instructions. After washing three times with PBS buffer, the enriched proteins were eluted with SDS sample buffer and subjected to SDS-PAGE.
For immunoblotting analysis, proteins were transferred to a nitrocellulose membrane using iBlot (Thermo Scientific). Membranes were blocked with Tris buffered saline containing 0.1% Tween-20 and 5% BSA and incubated with the primary antibodies (1:1000 dilution) and the secondary antibodies (1:10,000 dilution) sequentially. Immunoblot images were captured by Azure Imager C600. Analysis of immunoblots was conducted with Fiji ImageJ. All IR fluorescence western blot images are converted into grayscale images by Fiji ImageJ. The unsaturated exposure of immunoblot images was used for quantification with the appropriate loading controls as standards. Statistical analysis of the data was performed with Prism 8, using data from at least three independent experiments.

[2] = tested on: GFP-Sp1; test: Deglycosylation of GFP-Sp1 co-expressed with OGA constructs (anti-EPEA enrichment, immunoblot); format: cell-based, human; conditions: co-expressed in HEK 293T cells
Experimental: as §1
Glycoproteins Nup62, Sp1, JunB, c-Jun were subcloned into pcDNA3.1 vector with a GFP and a Flag-tag or a BC2 tag in the N-terminus and an EPEA tag in the C terminus respectively, unless otherwise noted. For all split OGA constructs with or without the fusion of nanobody GFP, N fragments were tagged with myc tag and C fragments were tagged with HA tag respectively. […]
After 36-48 h of transfection, cells were harvested and washed with PBS once. […] Protein concentrations were determined by the BCA assay kit (G-Biosciences, 786) on a multi-mode microplate reader FilterMax F3 (Molecular Devices LLC, Sunnyvale, CA). […]
For immunoblotting analysis, proteins were transferred to a nitrocellulose membrane using iBlot (Thermo Scientific). […] All IR fluorescence western blot images are converted into grayscale images by Fiji ImageJ. The unsaturated exposure of immunoblot images was used for quantification with the appropriate loading controls as standards. […]

B1: split OGA (N2+C3): split OGA fragments N2 and C3 without nanobody (protein)
chain 1: MEQKLISEEDLAIAMVQKESQATLEERESELSSNPAASAGASLEPPAAPAPGEDNPAGAGGAAVAGAAGGARRFLCGVVEGFYGRPWVMEQRKELFRRLQKWELNTYLYAPKDDYKHRMFWREMYSVEEAEQLMTLISAAREYEIEFIYAISPGLDITFSNPKEVSTLKRKLDQVSQFGCRSFALLFDDIDHNMCAADKEVFSSFAHAQVSITNEIYQYLGEPETFLFCPTEYCGTFCYPNVSQSPYLRTVGEKLLPGIEVLWTGPKVVSKEIPVESIEEVSKIIKRAPVIWDNIHANDYDQKRLFLGPYKGRSTELIPRLKGVLTNPNCEFEANYVAIHTLATWYKSNMNGVRKDVVMTDSEDSTVSIQIKLENEGSDEDIETDVLYSPQMALKLALTEWLQEFGVPHQYSSR
chain 2: MAYPYDVPDYAAIAEKPLYTAEPVTLEDLQLLADLFYLPYEHGPKGAQMLREFQWLRANSSVVSVNCKGKDSEKIEEWRSRAAKFEEMCGLVMGMFTRLSNCANRTILYDMYSYVWDIKSIMSMVKSFVQWLGCRSHSSAQFLIGDQEPWAFRGGLAGEFQRLLPIDGANDLFFQPP
[1]
  deglycosidase activity / O-GlcNAc modification level on GFP-Nup62: limited substrate activity
[1]; listed as N2-C3 pair
  deglycosidase activity / O-GlcNAc modification level on GFP-Nup62: significantly reduced activity
[2]
  deglycosidase activity / O-GlcNAc level on GFP-Sp1: weak inherent deglycosidase activity
